According to publication PMC5703498, “Plant-type phytoene desaturase: Functional evaluation of structural implications” (PLoS ONE, 2017):
Numbering of substitutions follows the chain as printed.

B1: Oryza sativa phytoene desaturase with C-terminal His6 (OsPDS-His6), wild type (enzyme, UniProt A2XDA1 88-578, looked up)
chain: AGQLSSFFRNSEQPTKPLQVVIAGAGLAGLSTAKYLADAGHKPILLEARDVLGGKIAAWKDEDGDWYETGLHIFFGAYPNIQNLFGELGINDRLQWKEHSMIFAMPNKPGEFSRFDFPETLPAPLNGIWAILRNNEMLTWPEKVKFALGLLPAMVGGQAYVEAQDGFTVSEWMKKQGVPDRVNDEVFIAMSKALNFINPDELSMQCILIALNRFLQEKHGSKMAFLDGNPPERLCMPIVDHVRSLGGEVRLNSRIQKIELNPDGTVKHFALTDGTQITGDAYVFATPVDILKLLVPQEWKEISYFKKLEKLVGVPVINVHIWFDRKLKNTYDHLLFSRSSLLSVYADMSVTCKEYYDPNRSMLELVFAPAEEWVGRSDTEIIEATMQELAKLFPDEIAADQSKAKILKYHVVKTPRSVYKTIPDCEPCRPLQRSPIEGFYLAGDYTKQKYLASMEGAVLSGKLCAQSVVEDYKMLSRRSLKSLQSEVPVAS
notes: residue numbers count on the immature protein A2XDA1.2 including the transit peptide; the GPC done here is described only as 'homooligomer'; Cloned through an NdeI site, so a start methionine probably precedes residue 88 (surmised); also called rice PDS-His6; wild type PDS; not shown: His6, C-terminal, kept
B2: Oryza sativa phytoene desaturase Arg300Ser mutant (Arg300Ser PDS) (enzyme, UniProt A2XDA1 88-578, looked up)
chain: B1 chain with R213S
notes: residue numbers count on the immature protein A2XDA1.2 including the transit peptide; Same construct as m1 apart from the mutation; about 70% in the FAD holo form, like the wild type; also called mutant enzyme Arg300Ser; source: E. coli, purified

Target: the molecule itself
Assay: SEC; gel permeation chromatography (GPC) of the purified protein on a Superose 6 10/300 GL column, elution monitored at 280 nm, carried out as in ref. 6

Row | Protein | binding result
1 | B1 | binds
2 | B2 | binds
